Values quoted from earlier work in paper PMC7662479.

Molecular target: Angiopoietin-2 (Homo sapiens) (UniProt O15123)
UniProt O15123, sequence (O15123 19-496): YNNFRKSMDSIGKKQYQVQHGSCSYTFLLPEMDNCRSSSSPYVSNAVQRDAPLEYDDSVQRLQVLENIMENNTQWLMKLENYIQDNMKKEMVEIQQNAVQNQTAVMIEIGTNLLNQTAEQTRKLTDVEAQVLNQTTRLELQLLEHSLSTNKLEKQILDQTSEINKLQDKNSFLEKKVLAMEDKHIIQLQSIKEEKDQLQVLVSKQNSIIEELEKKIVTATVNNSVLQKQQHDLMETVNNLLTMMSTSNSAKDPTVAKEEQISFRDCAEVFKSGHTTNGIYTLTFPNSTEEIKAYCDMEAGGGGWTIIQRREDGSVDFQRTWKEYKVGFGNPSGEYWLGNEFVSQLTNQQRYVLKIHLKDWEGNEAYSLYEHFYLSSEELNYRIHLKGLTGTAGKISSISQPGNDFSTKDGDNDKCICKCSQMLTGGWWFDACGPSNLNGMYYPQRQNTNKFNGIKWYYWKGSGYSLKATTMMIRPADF

- Kd: 24 pM
Substance: nesvacumab
